Numbering of substitutions follows the chain as printed. Numbers in names are those of the source.
Columns and labels:
recombinant human C5a [1] = biological target: T1, recombinant human C5a (human, UniProt P01031 678-751); assay: cell-based or functional assay
T1 sequence: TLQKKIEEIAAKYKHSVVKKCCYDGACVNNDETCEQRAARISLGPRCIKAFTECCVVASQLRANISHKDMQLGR

recombinant human C5a [2] = biological target: T1, recombinant human C5a; assay: ELISA on C5a (ABZENA), 0-100 ng/mL antibody

B1: VH4Vk3 (IFX-2 clone) (antibody, IgG4)
heavy: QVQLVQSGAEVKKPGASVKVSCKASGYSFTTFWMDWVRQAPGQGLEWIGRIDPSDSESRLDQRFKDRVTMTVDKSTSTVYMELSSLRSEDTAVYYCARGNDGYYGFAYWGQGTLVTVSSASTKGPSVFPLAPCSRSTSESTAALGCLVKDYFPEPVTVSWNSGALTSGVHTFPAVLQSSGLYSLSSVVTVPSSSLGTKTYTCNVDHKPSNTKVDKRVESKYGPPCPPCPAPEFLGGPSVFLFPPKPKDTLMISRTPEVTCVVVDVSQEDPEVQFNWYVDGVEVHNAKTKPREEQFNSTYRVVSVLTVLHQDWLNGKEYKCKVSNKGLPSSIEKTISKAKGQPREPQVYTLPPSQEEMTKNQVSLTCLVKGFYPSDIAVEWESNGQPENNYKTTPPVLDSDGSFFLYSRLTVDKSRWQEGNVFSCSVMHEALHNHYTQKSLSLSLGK
light: DIQLTQSPSSLSASVGDRVTITCKASQSVDYDGDSYMKWYQQKPGKAPKLLIYAASNLQSGIPSRFSGSGSGTDFTLTISSLQPEDFATYYCQQSNEDPYTFGQGTKLEIK
notes: Humanized IgG4 (S241P) / kappa; also called VH4/Vκ3; not shown: human kappa light chain constant domain
relative blocking activity on rhC5a-induced CD11b upregulation on granulocytes in human whole blood (flow cytometry MFI), 16.7 nM rhC5a, Ag:Ab 1:1, IFX-1 set to 100% [lower graph] (recombinant human C5a [1]): 102%
Relative EC50 (recombinant human C5a [2]): 0.91 relative to IFX-1 (VH0Vk0)

B2: VH5Vk2 (IFX-2 clone) (antibody, IgG4)
heavy: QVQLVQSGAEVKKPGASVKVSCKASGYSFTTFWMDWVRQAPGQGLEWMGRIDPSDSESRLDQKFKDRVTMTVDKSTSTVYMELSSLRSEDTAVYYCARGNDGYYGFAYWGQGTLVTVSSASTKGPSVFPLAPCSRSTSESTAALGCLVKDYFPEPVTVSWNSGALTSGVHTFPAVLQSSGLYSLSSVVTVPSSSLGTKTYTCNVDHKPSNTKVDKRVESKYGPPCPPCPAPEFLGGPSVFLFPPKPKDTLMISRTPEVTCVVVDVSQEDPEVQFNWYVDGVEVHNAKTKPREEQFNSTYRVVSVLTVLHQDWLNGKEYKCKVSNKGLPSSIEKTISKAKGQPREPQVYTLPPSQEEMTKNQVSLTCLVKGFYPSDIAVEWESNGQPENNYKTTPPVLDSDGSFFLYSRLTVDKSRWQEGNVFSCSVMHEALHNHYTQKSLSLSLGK
light: B1 light with Q3V, S9A
notes: Humanized IgG4 (S241P) / kappa; also called VH5/Vκ2; not shown: human kappa light chain constant domain
relative blocking activity on rhC5a-induced CD11b upregulation on granulocytes in human whole blood (flow cytometry MFI), 16.7 nM rhC5a, Ag:Ab 1:1, IFX-1 set to 100% [lower graph] (recombinant human C5a [1]): 103%
Relative EC50 (recombinant human C5a [2]): 1.05 relative to IFX-1 (VH0Vk0)

B3: VH3Vk4 (IFX-2 clone) (antibody, IgG4, V domains shown)
VH: QVQLVQSGAEVKKPGASVKVSCKASGYSFTTFWMDWVRQAPGQGLEWIGRIDPSDSESRLDQRFKDRATLTVDKSTSTVYMELSSLRSEDTAVYYCARGNDGYYGFAYWGQGTLVTVSS
VL: B1 light with L4M, I62V
notes: Humanized IgG4 (S241P) / kappa; also called VH3/Vκ4; not shown: human kappa light chain constant domain
relative blocking activity on rhC5a-induced CD11b upregulation on granulocytes in human whole blood (flow cytometry MFI), 16.7 nM rhC5a, Ag:Ab 1:1, IFX-1 set to 100% [lower graph] (recombinant human C5a [1]): 103%
Relative EC50 (recombinant human C5a [2]): 0.86 relative to IFX-1 (VH0Vk0)

B4: VH5Vk3 (IFX-2 clone) (antibody, IgG4)
heavy: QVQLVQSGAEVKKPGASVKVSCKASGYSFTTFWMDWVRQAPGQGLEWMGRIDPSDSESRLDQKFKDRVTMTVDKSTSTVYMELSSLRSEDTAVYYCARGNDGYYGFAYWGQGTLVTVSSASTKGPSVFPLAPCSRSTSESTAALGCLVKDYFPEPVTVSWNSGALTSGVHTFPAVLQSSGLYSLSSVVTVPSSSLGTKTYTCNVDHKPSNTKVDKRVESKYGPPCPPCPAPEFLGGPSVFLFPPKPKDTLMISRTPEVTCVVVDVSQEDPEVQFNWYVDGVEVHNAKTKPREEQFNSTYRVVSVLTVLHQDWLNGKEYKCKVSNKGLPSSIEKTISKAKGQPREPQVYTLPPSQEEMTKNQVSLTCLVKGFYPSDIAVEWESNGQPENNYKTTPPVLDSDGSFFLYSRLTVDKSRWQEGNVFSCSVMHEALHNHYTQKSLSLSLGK
light: B1 light
notes: Humanized IgG4 (S241P) / kappa; also called VH5/Vκ3; not shown: human kappa light chain constant domain
relative blocking activity on rhC5a-induced CD11b upregulation on granulocytes in human whole blood (flow cytometry MFI), 16.7 nM rhC5a, Ag:Ab 1:1, IFX-1 set to 100% [upper graph] (recombinant human C5a [1]): 96%
Relative EC50 (recombinant human C5a [2]): 1.14 relative to IFX-1 (VH0Vk0)

B5: VH2Vk3 (IFX-2 clone) (antibody, IgG4, V domains shown)
VH: B3 VH with V20I, R38K
VL: B1 light
notes: Humanized IgG4 (S241P) / kappa; also called VH2/Vκ3; not shown: human kappa light chain constant domain
Relative EC50 (recombinant human C5a [2]): 1.09 relative to IFX-1 (VH0Vk0)

B6: VH5Vk1 (IFX-2 clone) (antibody, IgG4, V domains shown)
VH: B3 VH with I48M, R63K, A68V, L70M
VL: B1 light with Q3V, S9A, S12A, P84E
notes: Humanized IgG4 (S241P) / kappa; also called VH5/Vκ1; not shown: human kappa light chain constant domain
relative blocking activity on rhC5a-induced CD11b upregulation on granulocytes in human whole blood (flow cytometry MFI), 16.7 nM rhC5a, Ag:Ab 1:1, IFX-1 set to 100% [lower graph] (recombinant human C5a [1]): 101%
Relative EC50 (recombinant human C5a [2]): 1.28 relative to IFX-1 (VH0Vk0)

B7: VH5Vk4 (IFX-2 clone) (antibody, IgG4, V domains shown)
VH: B3 VH with I48M, R63K, A68V, L70M
VL: B1 light with L4M, I62V
notes: Humanized IgG4 (S241P) / kappa; also called VH5/Vκ4; not shown: human kappa light chain constant domain
relative blocking activity on rhC5a-induced CD11b upregulation on granulocytes in human whole blood (flow cytometry MFI), 16.7 nM rhC5a, Ag:Ab 1:1, IFX-1 set to 100% [upper graph] (recombinant human C5a [1]): 94%
Relative EC50 (recombinant human C5a [2]): 1.53 relative to IFX-1 (VH0Vk0)

B8: VH4Vk2 (IFX-2 clone) (antibody, IgG4)
heavy: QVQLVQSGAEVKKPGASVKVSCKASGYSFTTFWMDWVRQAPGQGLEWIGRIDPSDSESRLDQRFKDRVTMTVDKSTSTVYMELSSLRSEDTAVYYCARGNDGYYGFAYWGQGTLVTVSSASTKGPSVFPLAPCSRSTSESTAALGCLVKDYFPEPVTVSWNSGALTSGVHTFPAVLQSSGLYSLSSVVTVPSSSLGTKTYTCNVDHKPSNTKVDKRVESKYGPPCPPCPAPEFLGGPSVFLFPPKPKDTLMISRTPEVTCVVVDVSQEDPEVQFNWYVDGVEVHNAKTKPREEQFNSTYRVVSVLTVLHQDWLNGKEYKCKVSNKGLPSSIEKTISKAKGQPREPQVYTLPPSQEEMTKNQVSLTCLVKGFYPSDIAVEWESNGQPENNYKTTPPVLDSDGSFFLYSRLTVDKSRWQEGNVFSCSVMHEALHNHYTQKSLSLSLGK
light: B1 light with Q3V, S9A
notes: Humanized IgG4 (S241P) / kappa; also called VH4/Vκ2; not shown: human kappa light chain constant domain
relative blocking activity on rhC5a-induced CD11b upregulation on granulocytes in human whole blood (flow cytometry MFI), 16.7 nM rhC5a, Ag:Ab 1:1, IFX-1 set to 100% [lower graph] (recombinant human C5a [1]): 104%
Relative EC50 (recombinant human C5a [2]): 0.86 relative to IFX-1 (VH0Vk0)

B9: VH4Vk1 (IFX-2 clone) (antibody, IgG4, V domains shown)
VH: B3 VH with A68V, L70M
VL: B1 light with Q3V, S9A, S12A, P84E
notes: Humanized IgG4 (S241P) / kappa; also called VH4/Vκ1; not shown: human kappa light chain constant domain
relative blocking activity on rhC5a-induced CD11b upregulation on granulocytes in human whole blood (flow cytometry MFI), 16.7 nM rhC5a, Ag:Ab 1:1, IFX-1 set to 100% [upper graph] (recombinant human C5a [1]): 98%
Relative EC50 (recombinant human C5a [2]): 1 relative to IFX-1 (VH0Vk0)

B10: VH2Vk4 (IFX-2 clone) (antibody, IgG4, V domains shown)
VH: B3 VH with V20I, R38K
VL: B1 light with L4M, I62V
notes: Humanized IgG4 (S241P) / kappa; also called VH2/Vκ4; not shown: human kappa light chain constant domain
Relative EC50 (recombinant human C5a [2]): 0.99 relative to IFX-1 (VH0Vk0)

B11: VH3Vk2 (IFX-2 clone) (antibody, IgG4, V domains shown)
VH: B3 VH
VL: B1 light with Q3V, S9A
notes: Humanized IgG4 (S241P) / kappa; also called VH3/Vκ2; not shown: human kappa light chain constant domain
relative blocking activity on rhC5a-induced CD11b upregulation on granulocytes in human whole blood (flow cytometry MFI), 16.7 nM rhC5a, Ag:Ab 1:1, IFX-1 set to 100% [upper graph] (recombinant human C5a [1]): 96%
Relative EC50 (recombinant human C5a [2]): 1.05 relative to IFX-1 (VH0Vk0)

B12: VH4Vk4 (IFX-2 clone) (antibody, IgG4, V domains shown)
VH: B3 VH with A68V, L70M
VL: B1 light with L4M, I62V
notes: Humanized IgG4 (S241P) / kappa; also called VH4/Vκ4; not shown: human kappa light chain constant domain
relative blocking activity on rhC5a-induced CD11b upregulation on granulocytes in human whole blood (flow cytometry MFI), 16.7 nM rhC5a, Ag:Ab 1:1, IFX-1 set to 100% [upper graph] (recombinant human C5a [1]): 102%
Relative EC50 (recombinant human C5a [2]): 1.03 relative to IFX-1 (VH0Vk0)

B13: IFX-1 (VH0/Vκ0), chimeric anti-human C5a IgG4 antibody (antibody, V domains shown)
VH: QVQLQQSGPQLVRPGTSVKISCKASGYSFTTFWMDWVKQRPGQGLEWIGRIDPSDSESRLDQRFKDRATLTVDKSSSTVYMQLSSPTSEDSAVYYCARGNDGYYGFAYWGQGTLVTVSS
VL: DIVLTQSPASLAVSLGQRATISCKASQSVDYDGDSYMKWYQQKPGQPPKLLIYAASNLQSGIPARFSGSGSGTDFTLNIHPVEEEDAATYYCQQSNEDPYTFGGGTKLEIK
notes: also called VH0Vk0; VH0Vk0 (IFX-1); not shown: human kappa light chain constant domain
Relative EC50 (recombinant human C5a [2]): 1 relative to IFX-1 (VH0Vk0)
